Results from PMC10977697 (PLOS ONE, 2024).

How the values were obtained:
[1] = target: T1, PCSK9 (human, UniProt Q8NBP7 31-692, biotin on lysines (Sulfo-NHS-LC-biotin)); test: SPR; conditions: both partners purified
T1 construct: also called PCSK9FL; hPCSK9 FL

[2] = target: T2, PCSK9ΔCRD (PCSK9 lacking the C-terminal Cys-rich domain CRD) (human, UniProt Q8NBP7 31-452, biotin on lysines (Sulfo-NHS-LC-biotin)); test: ELISA; conditions: one partner purified
T2 construct: also called PCSK9DCRD; PCSK9dCRDTEV
T2 sequence (Q8NBP7 31-452, stated change not applied): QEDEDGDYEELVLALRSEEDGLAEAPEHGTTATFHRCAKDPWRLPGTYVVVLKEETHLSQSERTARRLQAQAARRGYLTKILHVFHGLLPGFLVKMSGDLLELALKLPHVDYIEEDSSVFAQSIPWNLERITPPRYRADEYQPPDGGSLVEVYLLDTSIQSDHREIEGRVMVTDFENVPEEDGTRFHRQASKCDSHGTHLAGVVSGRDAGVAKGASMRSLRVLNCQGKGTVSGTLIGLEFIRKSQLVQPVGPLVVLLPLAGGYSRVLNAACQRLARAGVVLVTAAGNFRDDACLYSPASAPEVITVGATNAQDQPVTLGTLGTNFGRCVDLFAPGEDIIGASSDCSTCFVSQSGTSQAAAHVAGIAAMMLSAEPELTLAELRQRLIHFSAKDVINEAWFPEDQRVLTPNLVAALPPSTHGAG

T1 sequence (Q8NBP7 31-692): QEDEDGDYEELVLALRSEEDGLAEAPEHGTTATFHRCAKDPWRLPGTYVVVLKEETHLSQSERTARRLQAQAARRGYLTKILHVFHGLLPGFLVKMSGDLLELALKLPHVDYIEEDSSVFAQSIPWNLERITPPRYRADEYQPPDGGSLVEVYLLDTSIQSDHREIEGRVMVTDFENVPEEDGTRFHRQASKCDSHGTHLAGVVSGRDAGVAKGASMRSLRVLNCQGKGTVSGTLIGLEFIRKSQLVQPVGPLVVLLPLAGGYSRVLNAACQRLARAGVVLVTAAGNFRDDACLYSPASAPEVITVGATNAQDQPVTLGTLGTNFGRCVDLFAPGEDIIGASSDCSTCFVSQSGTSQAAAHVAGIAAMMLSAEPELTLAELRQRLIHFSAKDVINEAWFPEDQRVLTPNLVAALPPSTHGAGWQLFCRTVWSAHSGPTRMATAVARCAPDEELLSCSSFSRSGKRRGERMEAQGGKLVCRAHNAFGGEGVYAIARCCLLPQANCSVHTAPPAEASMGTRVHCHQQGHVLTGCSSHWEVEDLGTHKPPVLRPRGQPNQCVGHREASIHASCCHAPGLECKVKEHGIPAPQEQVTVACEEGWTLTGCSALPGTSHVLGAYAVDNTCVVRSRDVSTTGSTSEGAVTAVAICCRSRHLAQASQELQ

| Binder | Kd [1] | ELISA [2] | s/n Ratio [2] |
| --- | --- | --- | --- |
| ECKGKGAKCSYYMGIDKGYVNYCCTGSCRSGKC (designed binder, Conotoxin-MVIIA scaffold) [PCSK9_CnTx1] | 4.5 µM |  |  |
| ECKGKGAKCSYYMGIDKGYVNYCCTGSCRSGKC (designed binder, Conotoxin-MVIIA scaffold) [PCSK9_CnTx1 displayed on M13 phage] |  | 2 | 29.7 |
